Target: Metallothionein-2 (UniProt P02795)
Assay: SPR

Metallothionein-2, sequence (P02795 whole entry): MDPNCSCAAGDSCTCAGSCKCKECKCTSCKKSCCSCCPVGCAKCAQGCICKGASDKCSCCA

Kd: 110 nM
B1: Transgelin-2 (protein)
chain: ANRGPAYGLSREVQQKIEKQYDADLEQILIQWITTQCRKDVGRPQPGRENFQNWLKDGTVLCELINALYPEGQAPVKKIQASTMAFKQMEQISQFLQAAERYGINTTDIFQTVDLWEGKNMACVQRTLMNLGGLAVARDDGLFSGDPNWFPKKSKENPRNFSDNQLQEGKNVIGLQMGTNRGASQAGMTGYGMPRQIL
